Reference: publication PMC6255772

Experiments:
[1] = target: recombinant human IGF-2 (human); assay: SPR; competition with immobilized MEDI-573; conditions: Fc fusion
IGF-TRAP-3.3 (human) = IGF-TRAP-3.3 (human) (UniProt P08069); assay: SPR; BioRad ProteOn, GLC chip; about 1200 RU IGF-TRAP captured on immobilised goat anti-human Fc antibody; ligands 320-3.95 nM injected in triplicates, 120 s association, 600 s dissociation; PBST, 25 °C; 1:1 binding model
IGF-TRAP-3.1 (human) = IGF-TRAP-3.1 (human) (UniProt P08069); assay: as above

For “IGF-TRAP-3.3 (from UniProt P08069 31-736; P08069 741-935; P01857 1-328)”, which IC50 [1] is on record?
Its IC50 is 6.44 nM.

How did the fold lower affinity than for the IGF ligands (IGF-TRAP-3.3 (human)) turn out when human insulin (ligand) was run?
The fold lower affinity than for the IGF ligands was 1000 fold.

What about the fold lower affinity than for the IGF ligands (IGF-TRAP-3.1 (human)) of the same substance?
Its fold lower affinity than for the IGF ligands is 1000 fold.
